Consider 31 sequences from the supplement of paper PMC9170038.

The data set concerns MS2 coat protein. The experiment in a line: apparent KD of MS2 coat protein; designed switch direction (-1 OFF switch, 1 ON switch): -1; higher = weaker reporter binding. A digest of the protocol: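 Three titration conditions were used: no input, 200 uM small-molecule ligand, and an oligonucleotide input. In each, SNAP-549-labelled MS2 coat protein was raised from 0.7 or 1.5 nM, doubling, to 3 µM over designed RNA switches transcribed on Illumina chips by stalled E. coli RNA polymerase. Curve fits of normalised cluster fluorescence gave values whose per-design median over clusters is the apparent KD.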

[1] abbreviates: input ligand: microRNA oligo, concentration not stated.
The mark [2] stands for this setting: Eterna round: R95, input ligand: microRNA oligo, concentration not stated.
Setting [3] is: Eterna round: R95, input ligand: FMN 200 uM.
Setting [4] is: Eterna round: R95, input ligand: none.

Turning to “UGUUGUCGCGCAGGAUAUGAGGAUCACCCAUAUAGAGGAUAUGAAAAGAAGGCUCUGAGGAUUACCCAGAAGGGCGGGACAACU [pwkr exNG2 2xF5 2xFMN.21] (Eterna round: R96, puzzle: Exclusion NG 2)”, the “apparent KD of MS2 coat protein” value reads like this: (input ligand: FMN 200 uM) 1.66 µM; under setting [1], 0.152 µM; (input ligand: none) 0.179 µM.
Take “CUCUUACAUGAGGAUCACCCAUGUGAGGAUAUGCCCGGAGUAGCAGCAGAUCCUCUGGGCAGAAGGCACGUAGG [Eternabot (L1) Solution 98] (Eterna round: R97, puzzle: Exclusion 1)”: the “apparent KD of MS2 coat protein” value (input ligand: FMN 200 uM) turned out to be 0.144 µM and the “apparent KD of MS2 coat protein” value (input ligand: none) was 0.123 µM.
“CAUCCACAUGAGGAUCACCCAUGUCAGGAUAUCUAUCAUAGCAUCGAAAGAUGCGGGUAGAGAAGGGACAAACC [ChP Ext 10-04-2015 #9] (puzzle: Exclusion 1)”: the “apparent KD of MS2 coat protein” value under setting [2] amounted to 0.0124 µM.
As to “ACACAGCGAGGAUAUACAUGAGGAUCACCCAUGUGGCGGCCGUUACGGUAGCGCUAGUGUAGAAGGCGCAUUGG [EX3 #36] (Eterna round: R97, puzzle: Exclusion 3)”, the “apparent KD of MS2 coat protein” value (input ligand: FMN 200 uM) turned out to be 0.0658 µM and the “apparent KD of MS2 coat protein” value (input ligand: none) was 0.0942 µM.
Turning to “CACGAACAUGAGGAUCACCCAUGUCAGGAUAUGAGGCUUUGCGUGCCGCAUUUUGGUCUUAGAAGGGACAGCCG [Eternabot (L2) Solution 49] (Eterna round: R97, puzzle: Exclusion 1)”, the “apparent KD of MS2 coat protein” value reads like this: (input ligand: FMN 200 uM) 0.0223 µM; (input ligand: none) 0.023 µM.
In the case of “CGAUAAAUGACAGGAUAUUACGCUAAUUGGGACCCUUAACCGACAUGAGGAUCACCCAUGUUUUAUAAGAAGGGUCGUUUGUCA [Eternabot solution 47] (Eterna round: R96, puzzle: Exclusion NG 2)”, the “apparent KD of MS2 coat protein” value is, setting by setting: (input ligand: FMN 200 uM) 0.021 µM; under setting [1], 0.0112 µM; (input ligand: none) 0.0132 µM.
As to “UCUUUGUCAGGAUAUCGUGCAUACAACGAAAGUUCUAUGUGCGAGAAGGGACAUGAGGAUCACCCAUGUUACGG [Omei Ex4 A4] (Eterna round: R97, puzzle: Exclusion 4)”, the “apparent KD of MS2 coat protein” value is, setting by setting: (input ligand: FMN 200 uM) 0.244 µM; (input ligand: none) 0.358 µM.
The like results for “AGGUAGUCAGGAUAUUAAGAGUAGCGGGAUAACGCUACGAGUGAGAAGGGACAUGAGGAUCACCCAUGUUUUUU [JR_Ex4_Sub072] (Eterna round: R97, puzzle: Exclusion 4)” were, in that order, 0.022 µM and 0.0225 µM.
On to “UUUAAUCAUGUAGGAUAUGCGUGGCGAAGCUAUGCAGAAGGACAUGAGGAUCACCCAUGUUCUAGCGUCUGCGUACAGAUGCUA [JL ENG1 1.36] (Eterna round: R96, puzzle: Exclusion NG 1)”, for which the “apparent KD of MS2 coat protein” value is, setting by setting: (input ligand: FMN 200 uM) 0.334 µM; under setting [1], 0.033 µM; (input ligand: none) 0.047 µM.
For the sequence “AUUGUUUAUGUAGGAUAUGCCUGGCGUGCCUUCGCAGAAGGACAUGAGGAUCACCCAUGUAUUGCGGUCUGCGUUCAGAUCGCA [salish99_ExNG1_r4_024] (Eterna round: R96, puzzle: Exclusion NG 1)”, the “apparent KD of MS2 coat protein” value under setting [1] stood at 0.0452 µM.
For “UCUAUGAUGCGAGGAUAUCGACCAUUCCUCUUUACAUGAGGAUCACCCAUGUUCGUACGCUACAACGAGAAGGCGCACUAAGUU [JR_ExcNG2_Sub060] (Eterna round: R96, puzzle: Exclusion NG 2)”, the “apparent KD of MS2 coat protein” value by setting is: (input ligand: FMN 200 uM) 0.292 µM; under setting [1], 0.131 µM; (input ligand: none) 0.157 µM.
As to “AUAAUGUGAGGAUAUCAGUCGACUAGCUUCGGCUAGUCGACUGAGAAGGUACAUGAGGAUCACCCAUGUAGAUC [E4/20-A1] (Eterna round: R97, puzzle: Exclusion 4)”, the “apparent KD of MS2 coat protein” value is, setting by setting: (input ligand: FMN 200 uM) 0.0599 µM; (input ligand: none) 0.0409 µM.
Consider “AAAUACAAAGGAUAUACAUGAGGAUCACCCAUGUAGGUCAAUGCGCGGGCGAUGCCACGUAGAAGGUUGAAUAC [EX3 C.12] (Eterna round: R97, puzzle: Exclusion 3)”, for which the “apparent KD of MS2 coat protein” value is, setting by setting: (input ligand: FMN 200 uM) 0.0275 µM; (input ligand: none) 0.0241 µM.
In the case of “GUCAGCUCGUGAGGAUAUACAUGCGUGCUUCGGCACGUAUGAUAGAUCACAUGAGGAUCACCCAUGUAGAAGGUACGAGCUGAC [ENG2/4-C1] (Eterna round: R96, puzzle: Exclusion NG 2)”, the “apparent KD of MS2 coat protein” value runs as follows: (input ligand: FMN 200 uM) 0.0134 µM; under setting [1], 0.0122 µM; (input ligand: none) 0.0148 µM.
Regarding “GCACGGAGUGUAGGAUAUCUGUGCGAUUAGCUCAGAGAAGGACAUGAGGAUCACCCAUGUGUGUUCCAAUAAUAAAAUCCGUGC [Eli exng1 - 063] (Eterna round: R96, puzzle: Exclusion NG 1)”, the “apparent KD of MS2 coat protein” value runs as follows: (input ligand: FMN 200 uM) 1.5 µM; under setting [1], 0.27 µM; (input ligand: none) 0.329 µM.
For “AUUUUGUGAGGAUAUUAGUUGUAGAAAAUUAUUAGUUUAGCUGAGAAGGCACAUGAGGAUCACCCAUGUAAAUC [JR_Ex4_Sub043] (Eterna round: R97, puzzle: Exclusion 4)”, the “apparent KD of MS2 coat protein” value (input ligand: FMN 200 uM) is 0.0267 µM and the “apparent KD of MS2 coat protein” value (input ligand: none) was found to be 0.0186 µM.
The like results for “UCAUGUCCAGAGGAUAUGUAGCGGAUAAACGCAACAGAAGGCUGGACAUGAGGAUCACCCAUGUGUGCCUUCUA [Exclusion 6 Mod3 of JL of Mod of Letion by ViennaUCT] (Eterna round: R97, puzzle: Exclusion 6)” were, in that order, 0.0813 µM and 0.227 µM.
The matching figures for “AAGUAGUCUGUGAGGAUAUUGGUGGAAUGACACAUUAAGAAGGUACAUGAGGAUCACCCAUGUGGGUAAAGACG [Brourd's EX4 #24] (Eterna round: R97, puzzle: Brourd's mod of Exclusion 4)”: 0.115 µM and 0.109 µM.
“CGUGCGUAUGUGAGGAUAUGCUGGUCCUUGGCUCGGCAGAAGGCACAUGAGGAUCACCCAUGUGGUGUCGUACC [salish99_Bmod_ex4_061] (puzzle: Brourd's mod of Exclusion 4)”: the “apparent KD of MS2 coat protein” value under setting [2] worked out at 0.0189 µM.
As to “CGGAGCGGCUUAGGAUAUGCUGGAAUAUCCCUGCUCCUCAGAACAUGAGGAUCACCCAUGUACUGGCAGAAGGGAGCUGCAGAG [Inxeedsoxe] (Eterna round: R96, puzzle: Exclusion NG 2)”, the “apparent KD of MS2 coat protein” value (input ligand: FMN 200 uM) was determined as 0.0218 µM, the “apparent KD of MS2 coat protein” value under setting [1] is 0.0154 µM and the “apparent KD of MS2 coat protein” value (input ligand: none) was 0.0187 µM.
Turning to “AAAACCUCUGUCAGGAUAUCCAUGCGUCCAAAAGCGGAGAAGGGACAUGAGGAUCACCCAUGUUAGCAAAAUCA [Ceenxequ] (puzzle: Brourd's mod of Exclusion 4)”, the “apparent KD of MS2 coat protein” value under setting [3] stood at 0.119 µM, the “apparent KD of MS2 coat protein” value under setting [2] worked out at 0.0349 µM and the “apparent KD of MS2 coat protein” value under setting [4] is 0.0385 µM.
The like results for “CCCUCACAUGAGGAUCACCCAUGUCAGGAUAUUCAGGUCACGCAAAAGCGGUUCCAAAGGAGAAGGGACAUCAA [Cequusso] (puzzle: Exclusion 1)” were, in that order, 0.0438 µM, 0.0242 µM and 0.0309 µM.
On to “GUAGAGUCAGGAUAUACAAGAUCGAUAGAUCGGCGAUCCAUACAUGAGGAUCACCCAUGUAGAAGGGACUCUAC [Mat - Exclusion 2 - Eli Mod - D3] (Eterna round: R97, puzzle: Exclusion 2)”, for which the “apparent KD of MS2 coat protein” value was found to be 0.693 µM (input ligand: FMN 200 uM) and 0.0402 µM (input ligand: none).
For “UAAGUUUACCGAGGAUAUGGUCCAUAAUUUUUACCAGAAGGCGGACUCAACAUGAGGAUCACCCAUGUAUAAAGGGUAUUUGGU [JR_ExcNG1_Sub046] (Eterna round: R96, puzzle: Exclusion NG 1)”, the “apparent KD of MS2 coat protein” value (input ligand: FMN 200 uM) was 0.0512 µM, the “apparent KD of MS2 coat protein” value under setting [1] amounted to 0.0274 µM and the “apparent KD of MS2 coat protein” value (input ligand: none) was 0.0358 µM.
As for “GGGUAACAUGAGGAUCACCCAUGUGAGGAUAUUCUAGGGAUGGAAGCUCGGCCGGCCAGGAGAAGGUACUAAAG [Janelle Amethyst 18 Mod 20 - Jieux - Exclusion 1] (Eterna round: R96, puzzle: Exclusion 1)”, the “apparent KD of MS2 coat protein” value reads like this: (input ligand: FMN 200 uM) 0.062 µM; under setting [1], 0.0296 µM; (input ligand: none) 0.0482 µM.
On to “AAAAGGCUAGGAUAUACAUGAGGAUCACCCAUGUGAGGGCACGGCCGGCGCGGGCCCGGUAGAAGGAGUCAAAA [Exc;s3-IX] (puzzle: Exclusion 3)”, for which the “apparent KD of MS2 coat protein” value under setting [2] was 0.0134 µM.
For “UGCACCUCAGGAUAUACUAGGUCCAGUAUGGCGAAAGCCGCACAUGAGGAUCACCCAUGUAGAAGGGAGGUGCA [Eternabot (L1) Solution 61] (Eterna round: R97, puzzle: Exclusion 2)”, the “apparent KD of MS2 coat protein” value worked out at 0.0341 µM (input ligand: FMN 200 uM) and 0.257 µM (input ligand: none).
The like results for “AUAAUGUGAGGAUAUCAGUCGACUAGCUGCGGCUAGUCGACUGAGAAGGUACAUGAGGAUCACCCAUGUAGAUC [E4/20-A3] (Eterna round: R97, puzzle: Exclusion 4)” were, in that order, 0.0779 µM and 0.0294 µM.
“UCGGCGCGAGGAUAUGCGGUUCCUCCCUCGGGCCGGAGCGUACAUGAGGAUCACCCAUGUAGAAGGCGCGCCGC [Apr-15 SS2-36] (puzzle: Exclusion 2)”: the “apparent KD of MS2 coat protein” value under setting [2] was 0.0117 µM.
Still for that read-out and setting: with “AGUCGGCGAGGAUAUACAUGAGGAUCACCCAUGUGAUAUAGUGCACGCGUACGUGUACGUAGAAGGCGCUGACA [Mat - Exclusion 3 - Mod of JL D93] (puzzle: Exclusion 3)” the figure was 0.0115 µM.
For “CUGGUCCGAGGAUAUAUUAAGUGAUACAUGAGGAUCACCCAUGUAAUUUAAUGGAUAUAAAUAGAAGGCGGACUAG [Mat - Exclusion 5 - JL mod - D48] (puzzle: Exclusion 5)”, the “apparent KD of MS2 coat protein” value by setting is: under setting [3], 0.0429 µM; under setting [2], 0.0264 µM; under setting [4], 0.0328 µM.
